The record followed here is patent US9926355.

The target in the assay is binary complex of FGFR1c ligand-binding domain with αKlotho ectodomain (murine; human) (UniProt O35082). In words: SPR; immobilized FGF23, αKlotho-FGFR1c complex compared with FGFR1c ligand-binding domain alone (FIGS. 10D and 10E). For orientation: In SPR one partner is held on a chip, and binding of the other changes the refractive index at the surface.
binary complex of FGFR1c ligand-binding domain with αKlotho ectodomain (murine; human), sequence (O35082 35-982, form in doubt, chain 1 of 2): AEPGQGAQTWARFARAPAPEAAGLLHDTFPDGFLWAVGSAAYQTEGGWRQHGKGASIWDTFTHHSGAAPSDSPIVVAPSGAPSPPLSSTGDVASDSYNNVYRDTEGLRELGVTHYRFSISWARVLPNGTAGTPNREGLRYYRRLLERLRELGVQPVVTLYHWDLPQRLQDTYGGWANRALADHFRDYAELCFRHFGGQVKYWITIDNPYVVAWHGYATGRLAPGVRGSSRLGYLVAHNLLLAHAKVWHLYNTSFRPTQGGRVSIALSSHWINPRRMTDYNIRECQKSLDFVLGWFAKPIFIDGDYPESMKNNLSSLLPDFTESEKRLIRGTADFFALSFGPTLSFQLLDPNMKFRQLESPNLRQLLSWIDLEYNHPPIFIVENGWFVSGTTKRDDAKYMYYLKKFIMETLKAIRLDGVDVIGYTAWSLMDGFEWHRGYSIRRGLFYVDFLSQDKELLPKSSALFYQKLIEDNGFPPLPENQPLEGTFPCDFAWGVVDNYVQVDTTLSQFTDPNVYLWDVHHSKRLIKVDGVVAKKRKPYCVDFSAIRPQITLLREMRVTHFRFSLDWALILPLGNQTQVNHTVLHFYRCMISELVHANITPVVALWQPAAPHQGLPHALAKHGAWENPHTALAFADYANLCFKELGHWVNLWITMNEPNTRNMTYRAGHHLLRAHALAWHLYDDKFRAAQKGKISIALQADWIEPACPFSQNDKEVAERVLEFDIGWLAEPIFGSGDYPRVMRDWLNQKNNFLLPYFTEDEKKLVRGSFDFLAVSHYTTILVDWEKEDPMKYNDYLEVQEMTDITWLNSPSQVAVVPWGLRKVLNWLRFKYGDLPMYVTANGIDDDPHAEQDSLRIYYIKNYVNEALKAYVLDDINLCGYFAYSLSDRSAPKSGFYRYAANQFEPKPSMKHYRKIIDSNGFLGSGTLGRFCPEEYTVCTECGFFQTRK
binary complex of FGFR1c ligand-binding domain with αKlotho ectodomain (murine; human), sequence (P11362 142-365, form in doubt, chain 2 of 2, further chain): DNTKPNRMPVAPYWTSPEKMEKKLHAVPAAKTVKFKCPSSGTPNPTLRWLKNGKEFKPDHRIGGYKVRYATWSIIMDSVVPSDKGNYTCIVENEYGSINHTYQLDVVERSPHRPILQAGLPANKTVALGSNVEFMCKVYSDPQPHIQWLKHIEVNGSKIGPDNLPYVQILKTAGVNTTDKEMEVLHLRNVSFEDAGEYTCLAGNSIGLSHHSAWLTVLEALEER

B1: N-terminally hexahistidine-tagged, mature form of human FGF23 (Y25 to I251), R176Q/R179Q (ligand, not shown: small tags and cut ends)
chain: YPNASPLLGSSWGGLIHLYTATARNSYHLQIHKNGHVDGAPHQTIYSALMIRSEDAGFVVITGVMSRRYLCMDFRGNIFGSHYFDPENCRFQHQTLENGYDVYHSPQYHFLVSLGRAKRAFLPGMNPPPYSQFLSRRNEIPLIHFNTPIPRQHTQSAEDDSERDPLNVLKPRARMTPAPASCSQELPSAEDNSPMASDPLGVVRGGRVNTHAGGTGPEGCRPFAKFI
Consider B1, for which the fold enhancement of affinity against FGFR1c alone is over 20 fold.
